B1: mouse eIF4E1B (63-244) [mouse] / eIF4E-binding motif of human eIF4G (608-647) [human] (parent complex)
chain 1: KLHPLQYRWVLWFFKNDRSRAWQDNLQLVTKFNTVEDFWAVYSHIKLASKLSSGCDYALFKEGILPMWEDNRNKQGGRWLLSIDKQLRHFELDRLWLETLLCLVGNCFEEYSREVCGAVVNIRTKRDKIALWTSEAEDKAGVMQIGQIYKERLGISTKTIIGYQAHADTAAKSNNLANKFVV
chain 2: EKKRYDREFLLGFQFIFASMQKPEGLPHISDVVLDKANKT
B2: mouse eIF4E1B (63-244) [mouse] / eIF4E-binding motif of human eIF4EBP1 (50-83) [human] (parent complex)
chain 1: B1 chain 1
chain 2: TRIIYDRKFLMECRNSPVTKTPPRDLPTIPGVTS
B3: mouse eIF4E1B (63-244) [mouse] / eIF4E-binding motif of human eIF4ENIF1 (27-63) [human] (parent complex)
chain 1: B1 chain 1
chain 2: PHRYTKEELLDIKELPHSKQRPSCLSEKYDSDGVWDP

Variants of: B1
Assay: pulldown with E. coli lysates, quantified; n = 3 independent experiments; parent: 0.3; read off a plot

| screen value | Variant |
| --- | --- |
| ~0.22 rel. to Mm eIF4E | chain 1 KLHPLQYRWVLWFFKNDRSRAWQDNLQLVTKFNTVEDFWAVYSHIKLASNLMSGCDYALFKEGILPMWEDERNKQGGRWLLSIDKQLRRFELDRLWLETLLCLVGNCFEEYSREVCGAVVNIRTKRDKIALWTSEAEDKAGVMQIGQIYKERLGISTKTIIGYQAHADTAAKSNNLANKFVV [chain 1 K50N, chain 1 S52M, chain 1 N71E, chain 1 H89R] |
| ~0.13 rel. to Mm eIF4E | chain 1 KLHPLQYRWVLWFFKNDRSRAWQDNLQLVTKFNTVEDFWAVYSHIELASKLSSGCDYALFKEGILPMWEDNRNKQGGRWLLSIDKQLRHFELDRLWLETLLCLVGNCFEEYSREVCGAVVNIRTKRDKIALWTSEAEDKAGVMQIGQIYKERLGISTKTIIGYQAHADTAAKSNNLANKFVV [chain 1 K46E] |
| ~0.22 rel. to Mm eIF4E | chain 1 KLHPLQYRWVLWFFKNDRSRAWQDNLQLVTKFNTVEDFWAVYSHIKLASNLSSGCDYALFKEGILPMWEDNRNKQGGRWLLSIDKQLRHFELDRLWLETLLCLVGNCFEEYSREVCGAVVNIRTKRDKIALWTSEAEDKAGVMQIGQIYKERLGISTKTIIGYQAHADTAAKSNNLANKFVV [chain 1 K50N] |

Variants of: B2
Assay: pulldown with E. coli lysates, quantified; n = 3 independent experiments; parent: 0.9; read off a plot

| screen value | Variant |
| --- | --- |
| ~0.7 rel. to Mm eIF4E | chain 1 KLHPLQYRWVLWFFKNDRSRAWQDNLQLVTKFNTVEDFWAVYSHIKLASNLMSGCDYALFKEGILPMWEDERNKQGGRWLLSIDKQLRRFELDRLWLETLLCLVGNCFEEYSREVCGAVVNIRTKRDKIALWTSEAEDKAGVMQIGQIYKERLGISTKTIIGYQAHADTAAKSNNLANKFVV [chain 1 K50N, chain 1 S52M, chain 1 N71E, chain 1 H89R] |
| ~0.85 rel. to Mm eIF4E | chain 1 KLHPLQYRWVLWFFKNDRSRAWQDNLQLVTKFNTVEDFWAVYSHIELASKLSSGCDYALFKEGILPMWEDNRNKQGGRWLLSIDKQLRHFELDRLWLETLLCLVGNCFEEYSREVCGAVVNIRTKRDKIALWTSEAEDKAGVMQIGQIYKERLGISTKTIIGYQAHADTAAKSNNLANKFVV [chain 1 K46E] |
| ~0.68 rel. to Mm eIF4E | chain 1 KLHPLQYRWVLWFFKNDRSRAWQDNLQLVTKFNTVEDFWAVYSHIKLASNLSSGCDYALFKEGILPMWEDNRNKQGGRWLLSIDKQLRHFELDRLWLETLLCLVGNCFEEYSREVCGAVVNIRTKRDKIALWTSEAEDKAGVMQIGQIYKERLGISTKTIIGYQAHADTAAKSNNLANKFVV [chain 1 K50N] |

Variants of: B3
Assay: pulldown with E. coli lysates, quantified; n = 3 independent experiments; parent: 2.5; read off a plot

| screen value | Variant |
| --- | --- |
| ~1.6 rel. to Mm eIF4E | chain 1 KLHPLQYRWVLWFFKNDRSRAWQDNLQLVTKFNTVEDFWAVYSHIKLASNLSSGCDYALFKEGILPMWEDNRNKQGGRWLLSIDKQLRHFELDRLWLETLLCLVGNCFEEYSREVCGAVVNIRTKRDKIALWTSEAEDKAGVMQIGQIYKERLGISTKTIIGYQAHADTAAKSNNLANKFVV [chain 1 K50N] |
| ~1.4 rel. to Mm eIF4E | chain 1 KLHPLQYRWVLWFFKNDRSRAWQDNLQLVTKFNTVEDFWAVYSHIKLASNLMSGCDYALFKEGILPMWEDERNKQGGRWLLSIDKQLRRFELDRLWLETLLCLVGNCFEEYSREVCGAVVNIRTKRDKIALWTSEAEDKAGVMQIGQIYKERLGISTKTIIGYQAHADTAAKSNNLANKFVV [chain 1 K50N, chain 1 S52M, chain 1 N71E, chain 1 H89R] |
| ~1.6 rel. to Mm eIF4E | chain 1 KLHPLQYRWVLWFFKNDRSRAWQDNLQLVTKFNTVEDFWAVYSHIELASKLSSGCDYALFKEGILPMWEDNRNKQGGRWLLSIDKQLRHFELDRLWLETLLCLVGNCFEEYSREVCGAVVNIRTKRDKIALWTSEAEDKAGVMQIGQIYKERLGISTKTIIGYQAHADTAAKSNNLANKFVV [chain 1 K46E] |
